From paper PMC8429438, “DnaJC7 binds natively folded structural elements in tau to inhibit amyloid formation” (Nature Communications, 2021)
Several values for one entry are separate records, joined by “and”; a condition that tells them apart may be missing. Identical values can stand only once.

Tests used:
[1] = target: T1, full-length 2N4R wild-type tau (human, UniProt P10636-8 1-441, Cy5 (Cyanine5 NHS ester) label in MST); test: MST; Cy5-labelled wild-type or mutant tau/tauRD titrated with a serial two-fold dilution of DnaJC7 or single DnaJC7 domains; Monolith NT.115; technical triplicates; fit in PALMIST with a 1:1 binding model; conditions: both partners purified
T1 construct: microtubule-associated protein tau, 2N4R isoform, full length; also called WT tau; full-length tau; source: E. coli BL21 (DE3), pET28b, purified
T1 sequence (P10636 other isoform, or with tags, fused parts or gaps): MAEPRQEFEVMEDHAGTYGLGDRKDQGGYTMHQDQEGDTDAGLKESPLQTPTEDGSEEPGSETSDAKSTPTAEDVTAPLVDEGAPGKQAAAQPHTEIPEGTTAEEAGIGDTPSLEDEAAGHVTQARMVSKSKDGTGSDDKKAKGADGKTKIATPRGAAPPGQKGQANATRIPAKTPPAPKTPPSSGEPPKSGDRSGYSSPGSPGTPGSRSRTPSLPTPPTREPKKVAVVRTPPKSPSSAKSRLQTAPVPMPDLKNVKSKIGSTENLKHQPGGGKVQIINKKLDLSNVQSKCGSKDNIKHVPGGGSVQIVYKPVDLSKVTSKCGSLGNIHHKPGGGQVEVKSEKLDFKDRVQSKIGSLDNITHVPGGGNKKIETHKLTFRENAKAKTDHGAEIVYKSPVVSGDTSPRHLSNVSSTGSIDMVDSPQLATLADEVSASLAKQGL

[2] = target: T2, full-length 2N4R P301L tau (human, UniProt P10636-8 1-441, P301L, Cy5 (Cyanine5 NHS ester) label in MST); test: as above; conditions: both partners purified
T2 construct: microtubule-associated protein tau, 2N4R isoform, full length, with the disease-associated P301L mutation; also called full-length P301L tau mutant; source: E. coli BL21 (DE3), pET28b, purified
T2 sequence (P10636 other isoform, or with tags, fused parts or gaps P301L | P301L | P301L P301L): as the sequence (P10636 other isoform, or with tags, fused parts or gaps) above, with P301L counted along it

[3] = target: T1, full-length 2N4R wild-type tau; test: cell-based or functional assay
[4] = target: T3, recombinant tau monomer seed (human, UniProt P10636-8 1-441, Cy5 (Cyanine5 NHS ester) label in MST); test: MST; Cy5-labelled wild-type or mutant tau/tauRD titrated with a serial two-fold dilution of DnaJC7 or single DnaJC7 domains; Monolith NT.115; technical triplicates; fit in PALMIST with a 1:1 binding model; conditions: both partners purified
T3 construct: Probably made from the full-length 2N4R tau of m5; the methods say only 'wild-type tau'; also called tau monomer seeds; tau seeds; source: wild-type tau from E. coli BL21 (DE3) incubated 1:1 with heparin for 1 h at 37 °C, isolated on Superdex 200
T3 sequence (P10636 other isoform, or with tags, fused parts or gaps): as the sequence (P10636 other isoform, or with tags, fused parts or gaps) above

[5] = target: T4, full-length 2N4R P301L tau (human, UniProt P10636-8 1-441, P301L, Cy5 (Cyanine5 NHS ester) label in the MST assays; unlabelled in cross-linking and aggregation assays); test: MST; WT tau or P301L tau labelled with Cyanine5 NHS ester dye (Cy5) and titrated by a serial two-fold dilution of DnaJC7 domains; n=3; Nanotemper Monolith NT.115; 1:1 binding model; conditions: both partners purified
T4 construct: microtubule-associated protein tau, 2N4R isoform, with the frontotemporal dementia disease-associated P301L mutation; source: E. coli BL21 (DE3), pET28b, purified
T4 sequence (P10636 other isoform, or with tags, fused parts or gaps P301L | P301L | P301L P301L): as the sequence (P10636 other isoform, or with tags, fused parts or gaps) above, with P301L counted along it

[6] = target: T5, full-length 2N4R wild-type tau (human, UniProt P10636-8 1-441, Cy5 (Cyanine5 NHS ester) label in the MST assays; unlabelled in cross-linking and aggregation assays); test: as above; conditions: both partners purified
T5 construct: microtubule-associated protein tau, 2N4R isoform; also called WT tau; WT TAU; source: E. coli BL21 (DE3), pET28b, purified
T5 sequence (P10636 other isoform, or with tags, fused parts or gaps): as the sequence (P10636 other isoform, or with tags, fused parts or gaps) above

Binder	Kd [1]	Kd [5]	fold increase in binding affinity relative to full-length DnaJC7 [2]	other results
DnaJC7 J domain (JD 380-494) (domain or fragment, UniProt Q99615 380-494, looked up, DnaJC7 residues 380-494, C-terminal J domain; also called J domain_(380-494)) KDYYKILGVDKNASEDEIKKAYRKRALMHHPDRHSGASAEVQKEEEKKFKEVGEAFTILSDPKKKTRYDSGQDLDEEGMNMGDFDPNNIFKAFFGGPGGFSFEASGPGNFFFQFG	8200 nM	–	–	Kd [2]: 28200 nM
DnaJC7 (full-length, wild type, recombinant) (natural protein, UniProt Q99615 1-494, looked up, DnaJC7, class-C J-domain protein with TPR1, TPR2a, TPR2b and a C-terminal J domain; called full-length DnaJC7; Plasmid was a gift (A. Joachimiak); also called DnaJC7WT; WT DnaJC7) MAAAAECDVVMAATEPELLDDQEAKREAETFKEQGNAYYAKKDYNEAYNYYTKAIDMCPKNASYYGNRAATLMMLGRFREALGDAQQSVRLDDSFVRGHLREGKCHLSLGNAMAACRSFQRALELDHKNAQAQQEFKNANAVMEYEKIAETDFEKRDFRKVVFCMDRALEFAPACHRFKILKAECLAMLGRYPEAQSVASDILRMDSTNADALYVRGLCLYYEDCIEKAVQFFVQALRMAPDHEKACIACRNAKALKAKKEDGNKAFKEGNYKLAYELYTEALGIDPNNIKTNAKLYCNRGTVNSKLRKLDDAIEDCTNAVKLDDTYIKAYLRRAQCYMDTEQYEEAVRDYEKVYQTEKTKEHKQLLKNAQLELKKSKRKDYYKILGVDKNASEDEIKKAYRKRALMHHPDRHSGASAEVQKEEEKKFKEVGEAFTILSDPKKKTRYDSGQDLDEEGMNMGDFDPNNIFKAFFGGPGGFSFEASGPGNFFFQFG	471 nM and 343 nM	–	–	ThT fluorescence of 4.4 µM WT tau seeded with 50 nM tau monomer seeds with equimolar DnaJC7WT over 100 h, relative to the seeded tau control [3]: 20%; Kd [4]: 15500 ± 2200 nM
DnaJC7_(TPR2b_mut) (full-length DnaJC7 with six alanine mutations in the TPR2b binding groove) (natural protein, UniProt Q99615 1-494, looked up, also called DnaJC7_(TPR2_mut); source: recombinant from pET29b (NdeI/XhoI)) MAAAAECDVVMAATEPELLDDQEAKREAETFKEQGNAYYAKKDYNEAYNYYTKAIDMCPKNASYYGNRAATLMMLGRFREALGDAQQSVRLDDSFVRGHLREGKCHLSLGNAMAACRSFQRALELDHKNAQAQQEFKNANAVMEYEKIAETDFEKRDFRKVVFCMDRALEFAPACHRFKILKAECLAMLGRYPEAQSVASDILRMDSTNADALYVRGLCLYYEDCIEKAVQFFVQALRMAPDHEKACIACRNAKALKAKAEDGAKAAAAGNAKLAYELYTEALGIDPNNIKTNAKLYCNRGTVNSKLRKLDDAIEDCTNAVKLDDTYIKAYLRRAQCYMDTEQYEEAVRDYEKVYQTEKTKEHKQLLKNAQLELKKSKRKDYYKILGVDKNASEDEIKKAYRKRALMHHPDRHSGASAEVQKEEEKKFKEVGEAFTILSDPKKKTRYDSGQDLDEEGMNMGDFDPNNIFKAFFGGPGGFSFEASGPGNFFFQFG	6000 ± 1200 nM	–	–	–
DnaJC7 TPR1 domain (20-156) (domain or fragment, UniProt Q99615 20-156, looked up, DnaJC7, TPR1 domain, residues 20-156; also called TPR1_(20-156); not shown: His tag (from the vector pMCSG7)) DDQEAKREAETFKEQGNAYYAKKDYNEAYNYYTKAIDMCPKNASYYGNRAATLMMLGRFREALGDAQQSVRLDDSFVRGHLREGKCHLSLGNAMAACRSFQRALELDHKNAQAQQEFKNANAVMEYEKIAETDFEKR	–	404 nM	–	–
DnaJC7 TPR1 domain (TPR1 20-156) (domain or fragment, UniProt Q99615 20-156, looked up, DnaJC7 residues 20-156, TPR1 domain) DDQEAKREAETFKEQGNAYYAKKDYNEAYNYYTKAIDMCPKNASYYGNRAATLMMLGRFREALGDAQQSVRLDDSFVRGHLREGKCHLSLGNAMAACRSFQRALELDHKNAQAQQEFKNANAVMEYEKIAETDFEKR	84 nM	–	> 12 fold	–
DnaJC7 TPR2a domain (141-270) (domain or fragment, UniProt Q99615 141-270, looked up, DnaJC7, TPR2a domain, residues 141-270; also called TPR2a_(141-270); not shown: His tag (from the vector pMCSG7)) AVMEYEKIAETDFEKRDFRKVVFCMDRALEFAPACHRFKILKAECLAMLGRYPEAQSVASDILRMDSTNADALYVRGLCLYYEDCIEKAVQFFVQALRMAPDHEKACIACRNAKALKAKKEDGNKAFKEG	–	670 nM	–	Kd [6]: 202 nM
DnaJC7 TPR2a domain (TPR2a 141-270) (domain or fragment, UniProt Q99615 141-270, looked up, DnaJC7 residues 141-270, TPR2a domain) AVMEYEKIAETDFEKRDFRKVVFCMDRALEFAPACHRFKILKAECLAMLGRYPEAQSVASDILRMDSTNADALYVRGLCLYYEDCIEKAVQFFVQALRMAPDHEKACIACRNAKALKAKKEDGNKAFKEG	–	–	> 12 fold	fold tighter binding than full-length DnaJC7 [1]: > 2 fold
DnaJC7 TPR2b domain (255-370) (domain or fragment, UniProt Q99615 255-370, looked up, also called TPR2b_(255-370); TPR2b_(253-370); not shown: His tag (from the vector pMCSG7)) ALKAKKEDGNKAFKEGNYKLAYELYTEALGIDPNNIKTNAKLYCNRGTVNSKLRKLDDAIEDCTNAVKLDDTYIKAYLRRAQCYMDTEQYEEAVRDYEKVYQTEKTKEHKQLLKNA	–	507 nM	–	–
DnaJC7 TPR2b domain (TPR2b 255-370) (domain or fragment, UniProt Q99615 255-370, looked up, also called TPR2b_(253-370)) ALKAKKEDGNKAFKEGNYKLAYELYTEALGIDPNNIKTNAKLYCNRGTVNSKLRKLDDAIEDCTNAVKLDDTYIKAYLRRAQCYMDTEQYEEAVRDYEKVYQTEKTKEHKQLLKNA	75 nM	–	> 12 fold	–
